Assays:
Assay in all cases: pull-down; 20 μg GST-Atg13 (351–458) immobilised on 30 μL Glutathione Sepharose 4B; Atg17-Atg31-Atg29 complex at 10 μM; 4°C, 1 hour; 20 mM Tris pH 8, 150 mM NaCl, 0.1 mM TCEP; 3 washes; SDS-PAGE
Settings in all cases: both partners purified
[1] = target: T1, Atg17-Atg31-Atg29 complex with Atg17 mutant M3 (K8D/R14D/K249D) (Saccharomyces cerevisiae, UniProt Q06410 1-417; Q12421 1-196; Q12092 1-213, K8D | R14D | K249D)
T1 construct: Atg17, Saccharomyces cerevisiae; Atg31, Saccharomyces cerevisiae; Atg29, Saccharomyces cerevisiae; a TEV cleavage site follows the His6 tag; Mutations introduced into the Atg17-Atg31-Atg29 construct by quick-change mutagenesis; source: E. coli BL21 (DE3), co-expressed from pST39, purified (Ni-NTA, Superose 6); copies: 2 + +
T1 sequence (looked up) 1: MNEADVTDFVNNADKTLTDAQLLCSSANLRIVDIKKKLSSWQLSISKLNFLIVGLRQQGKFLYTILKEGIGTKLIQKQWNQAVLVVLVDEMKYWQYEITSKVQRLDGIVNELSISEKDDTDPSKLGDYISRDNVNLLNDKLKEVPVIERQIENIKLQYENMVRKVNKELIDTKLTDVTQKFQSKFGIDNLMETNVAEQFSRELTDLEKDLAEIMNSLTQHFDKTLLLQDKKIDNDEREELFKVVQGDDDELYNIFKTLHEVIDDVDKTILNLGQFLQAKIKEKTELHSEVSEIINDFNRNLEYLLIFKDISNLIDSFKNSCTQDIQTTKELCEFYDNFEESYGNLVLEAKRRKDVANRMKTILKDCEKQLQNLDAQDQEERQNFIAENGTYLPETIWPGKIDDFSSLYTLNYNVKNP
T1 sequence (looked up) 2: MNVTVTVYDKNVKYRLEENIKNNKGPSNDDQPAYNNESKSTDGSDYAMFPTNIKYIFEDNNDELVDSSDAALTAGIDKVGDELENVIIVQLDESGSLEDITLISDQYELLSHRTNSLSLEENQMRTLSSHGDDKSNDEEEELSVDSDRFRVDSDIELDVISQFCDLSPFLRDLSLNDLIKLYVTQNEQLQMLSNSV
T1 sequence (looked up) 3: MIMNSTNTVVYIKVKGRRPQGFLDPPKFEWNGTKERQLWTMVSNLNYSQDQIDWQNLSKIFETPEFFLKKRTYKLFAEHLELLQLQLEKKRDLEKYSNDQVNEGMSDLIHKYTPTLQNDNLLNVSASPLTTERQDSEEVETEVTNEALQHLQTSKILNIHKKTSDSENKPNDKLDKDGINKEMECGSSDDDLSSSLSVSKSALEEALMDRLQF

[2] = target: T2, Atg17-Atg31-Atg29 complex, wild type (Saccharomyces cerevisiae, UniProt Q06410 1-417; Q12421 1-196; Q12092 1-213)
T2 construct: Atg17, Saccharomyces cerevisiae; Atg31, Saccharomyces cerevisiae; Atg29, Saccharomyces cerevisiae; a TEV cleavage site follows the His6 tag; Atg17 is described as a dimer; cleavage of the His6 tag by TEV is not mentioned; also called recombinant ternary complex; Atg17-Atg31-Atg29 subcomplex of Atg1; source: E. coli BL21 (DE3), co-expressed from pST39, purified (Ni-NTA, Superose 6); copies: 2 + +
T2 sequence (looked up) 1: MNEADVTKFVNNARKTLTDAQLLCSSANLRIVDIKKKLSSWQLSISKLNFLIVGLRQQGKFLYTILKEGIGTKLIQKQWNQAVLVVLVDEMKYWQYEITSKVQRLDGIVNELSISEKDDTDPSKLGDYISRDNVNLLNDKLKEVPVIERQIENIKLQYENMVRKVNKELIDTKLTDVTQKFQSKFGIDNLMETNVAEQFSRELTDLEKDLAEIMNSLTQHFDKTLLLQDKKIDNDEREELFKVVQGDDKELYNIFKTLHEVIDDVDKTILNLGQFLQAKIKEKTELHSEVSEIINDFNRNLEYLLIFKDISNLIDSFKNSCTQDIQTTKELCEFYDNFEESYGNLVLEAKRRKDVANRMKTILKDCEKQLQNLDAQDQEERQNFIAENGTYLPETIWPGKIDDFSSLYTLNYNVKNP
T2 sequence (looked up) 2: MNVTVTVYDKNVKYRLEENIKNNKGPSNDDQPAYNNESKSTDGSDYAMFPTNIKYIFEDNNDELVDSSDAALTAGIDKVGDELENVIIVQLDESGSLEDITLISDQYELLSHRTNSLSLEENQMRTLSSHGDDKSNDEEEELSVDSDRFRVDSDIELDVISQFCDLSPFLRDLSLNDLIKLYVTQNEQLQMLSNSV
T2 sequence (looked up) 3: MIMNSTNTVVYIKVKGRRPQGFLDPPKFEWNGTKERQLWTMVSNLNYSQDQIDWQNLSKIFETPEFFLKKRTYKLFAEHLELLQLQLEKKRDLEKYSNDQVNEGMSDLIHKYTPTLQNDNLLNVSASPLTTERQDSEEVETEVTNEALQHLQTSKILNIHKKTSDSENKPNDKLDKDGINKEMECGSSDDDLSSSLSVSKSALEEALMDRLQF

[3] = target: T3, Atg17-Atg31-Atg29 complex with Atg17 mutant M4 (K164D/K173D/R299D) (Saccharomyces cerevisiae, UniProt Q06410 1-417; Q12421 1-196; Q12092 1-213, K164D | K173D | R299D)
T3 construct: Atg17, Saccharomyces cerevisiae; Atg31, Saccharomyces cerevisiae; Atg29, Saccharomyces cerevisiae; a TEV cleavage site follows the His6 tag; Mutations introduced into the Atg17-Atg31-Atg29 construct by quick-change mutagenesis; source: E. coli BL21 (DE3), co-expressed from pST39, purified (Ni-NTA, Superose 6); copies: 2 + +
T3 sequence (looked up) 1: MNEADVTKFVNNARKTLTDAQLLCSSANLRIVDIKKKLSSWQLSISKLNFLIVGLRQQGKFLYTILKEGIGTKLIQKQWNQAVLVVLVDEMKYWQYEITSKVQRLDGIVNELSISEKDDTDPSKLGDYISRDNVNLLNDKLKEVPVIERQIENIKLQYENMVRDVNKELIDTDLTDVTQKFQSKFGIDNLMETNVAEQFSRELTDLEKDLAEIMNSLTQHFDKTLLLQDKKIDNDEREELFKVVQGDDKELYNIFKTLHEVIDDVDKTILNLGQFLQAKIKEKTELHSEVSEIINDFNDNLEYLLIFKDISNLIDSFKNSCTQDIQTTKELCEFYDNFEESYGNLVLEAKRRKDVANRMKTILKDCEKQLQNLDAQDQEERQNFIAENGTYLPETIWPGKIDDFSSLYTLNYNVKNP
T3 sequence (looked up) 2: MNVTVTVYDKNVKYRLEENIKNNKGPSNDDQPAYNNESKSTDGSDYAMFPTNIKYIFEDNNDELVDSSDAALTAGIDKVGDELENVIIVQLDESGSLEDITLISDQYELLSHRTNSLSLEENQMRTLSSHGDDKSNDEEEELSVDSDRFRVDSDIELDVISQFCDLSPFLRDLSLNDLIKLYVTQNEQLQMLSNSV
T3 sequence (looked up) 3: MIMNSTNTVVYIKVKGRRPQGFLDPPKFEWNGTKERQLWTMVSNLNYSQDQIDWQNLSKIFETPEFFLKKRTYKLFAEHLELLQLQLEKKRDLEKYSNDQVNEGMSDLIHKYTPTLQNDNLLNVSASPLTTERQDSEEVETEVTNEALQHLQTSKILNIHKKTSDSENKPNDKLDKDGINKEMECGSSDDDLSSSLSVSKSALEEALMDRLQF

Measured: binding result

B1: GST-Atg13 (351–458) (domain or fragment, Saccharomyces cerevisiae, UniProt Q06628 351-458, looked up)
chain: TRANSFEPQSWQKKVYPISRPVQPFKVGSIGSQSASRNPSNSSFFNQPPVHRPSMSSNYGPQMNIEGTSVGSTSKYSSSFGNIRRHSSVKTTENAEKVSKAVKSPLQP
notes: a TEV cleavage site follows the GST tag; source: recombinant from pGST2 vector, purified (Glutathione Sepharose 4B, HiLoad Superdex 200 16/60); not shown: GST, N-terminal, kept
binds: all assays above
